Measured values taken from the supplement of paper PMC9170038.

Test system: MS2 coat protein
Test: apparent KD of MS2 coat protein; higher = weaker reporter binding
Details: Eterna round: R107
How it was run: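 SNAP-549-labelled MS2 coat protein was titrated onto designed RNA switches that had been transcribed on-chip from Illumina sequencing clusters. Amounts doubled from 0.7 or 1.5 nM to 3 µM in 100 mM Tris-HCl pH 7.5, 80 mM KCl, 4 mM MgCl2, with constant ligand or without. Apparent KD is the median per design of normalised cluster binding-curve fits.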

[1] = input ligand: theophylline 20 uM
[2] = input ligand: tryptophan 2.4 mM
[3] = input ligand: theophylline 2 mM

Sequence | apparent KD of MS2 coat protein (input ligand: arginine 13.2 mM) [nM] | apparent KD of MS2 coat protein [1] [nM] | apparent KD of MS2 coat protein [2] [nM] | apparent KD of MS2 coat protein (input ligand: none) [nM] | apparent KD of MS2 coat protein [3] [nM]
GGAUAGAUAGGAGAUACCAGAUACAUAAACAUGAGGAUCACCCAUGUGUCUGCACUAAGUAUCCCUUGGCAGCUCGGAGAUCUGA [#17 Same State - Theophylline B] | 17.4 | 21.7 | 18.5 | – | –
GGAUAGGACACGGCCGCCACUACCUAGGAUACUAGCAACAUUUGGGUACACGAGGAUCACCCGUGUAGGACCGGGUGUCCUAUCG | 32.6 | 18.1 | 19.2 | 10.7 | 13.6
GGAUAGGACACGGCCGCCACUAGCUAGGAUACUAGCAACAUUUCCUCACCUGAGGAUCACCCUGGUAGGACCGGGUGUCCUAUCG | 134 | 569 | 394 | 353 | 1390
GGAUAGGACACGGCCGCCACUAGCUAGGAUACUAGCAACAUUUCCUCGCAUGAGGAUCACCCAUGUAGGACCGGGUGUCCUAUCG | 159 | 638 | 484 | 462 | 495
GGAUAGGACACGGCCGCCACUGCCUAGGAUACUAGCAACAUUUGGGUACAUGAGGAUCACCCAUGUAGGACCGGGUGUCCUAUCG | 38.5 | 70.9 | – | – | 70.3
GGAUAGGACAGAAGGAGCGGCAUGGCAGAAACUGCAAUCCUCCUACACGAGGAUCACCCGUGUCAGGUAGGUCGCUGUCCUAUCG [ArgXB 13 #Zipper #MS2Left #StaticStem #Blueprint] | 18.5 | 20.4 | 15 | 15.1 | 19
GGCACAUAGUCGGCCGCCACUACUAACACCUCAGACAACAUGAGGAUCACCCAUGUUCCAGAGUGUAGGACCGGGACUAUGUGCC [Minonka] | 11.7 | 13.7 | – | – | 12.2
GGCGGACUUAUAGAUACCAGCACAUGAGGAUCACCCAUGUUUGGUCGCACCUCAGUCCUGUGCCCUUGGCAGCUAUGAUAGAUUU [Leaatge] | 16.9 | 33.4 | 16.1 | – | –
GGCGUGGUCGGAAGGAGCGACAUGAGGAUCACCCAUGUCUCCCGUUAUGGGAGUUCCUUAGGUCAGGUAGGUCGCCGACUGCGGC [#1 Exclusion - Arginine B Attempt #22 (Inspired by Omei)] | 41.6 | 123 | 159 | 231 | 326
GGCUAACAUGAGGAUCACCCAUGUAUUGAUACCAGUAUUUGAAAAUACCCUUGGCAGCAAAUGAAGAGCGUAGCAGGGUCGAUUA [theeternabot_sameState_MS2_Theo_A_7] | 10 | 17 | 12.6 | – | –
GGGAGGGAGGCGGCCGCCACUGAUUUUCAUAUAUAUAUAACAUGAGGAUCACCCAUGUAGAUAUACAGGACCGGGCCUUUUUUUU [aaaG] | 14.6 | 33.8 | – | – | 22.8
GGGCCUAUAAGCAGGCCCACAGCGGGUGAUACCAGCAAUAAAACUUGCCCUUGGCAGCACACAGCUACAUGAGGAUCACCCAUGU [Beator] | 41.1 | 72.9 | 62.4 | 45.1 | 70.6
GGGCGAGUGGACCGGCGUGCUCCGCUCCGUCGAGGACCGGUACGGCCGCCACUCGACAUGAGGAUCACCCAUGUGCGAGCUCGCG [#1 Exclusion - Tryptophan A Attempt #14 (HarryS)] | 32.7 | 114 | 86 | 77.5 | 82.4
GGGCGUGUGGUGCGGCGUGUUCCGCUCCGUCGAGGACCGGUACGGCCGCCACUCGACAUGAGGAUCACCCAUGUGCGAGCGCGCG [#1 Exclusion - Tryptophan A Attempt #8 (HarryS)] | 13.2 | 13.2 | 19.2 | 11.5 | 11.7
GGGUAAGAUCCGGAUACCAGCGAACAUGAGGAUCACCCAUGUGAAAUAAGAUAGACUAAACGCCCUUGGCAGCCGAAAUAGCGUU [Same State Theophylline B GF 4] | 17.9 | 84.7 | 44.1 | 46.6 | 48.9
GGGUAUGAUCCGGAUACCAGCGAACAUGAGGAUCACCCAUGUGACCUAAGAUAGGCUCUACGCCCUUGGCAGCCGCGAUCGCAGA [Same State Theophylline B GF9] | 20.4 | 23.2 | 24.7 | 22.3 | 13.3
GGGUAUGAUCCGGAUACCAGCGAACAUGAGGAUCACCCAUGUGACCUAAGAUAGGCUCUACGCCCUUGGCAGCCGCGAUCGCGUU [Same State Theophylline B GF8] | 21.7 | 32 | 29 | – | –
GGGUGGUAGGCGGCCGCCACUGAUUUUUAUAUAUAUAUAACAUGAGGAUCACCCAUGUAGAUAUGCAGGACCGGGCCUGUUGUUU [aaaM] | 21.7 | 37.8 | 28.3 | 25 | 46.1
GGGUGGUAGGCGGCCGCCACUGAUUUUUAUUUAUAGAUGACAUGAGGAUCACCCAUGUUUAUAUGCAGGACCGGGCCUGUUGUGG [aaaQ] | 12 | 22.5 | – | – | 17.6
GGGUGUGAUCCGGAUACCAGCGAACAUGAGGAUCACCCAUGUGACCUGAGAUCGGCUCUACGCCCUUGGCAGCCGCGAUCGCAGG [Same State Theophylline B GF12] | – | 105 | 13.1 | 18.8 | 37.9
